T1: KW27-16 (human CD39 mutant, C-terminal EGFP) (human, UniProt P49961 1-510)
T1 construct: expressed on HEK293F cells; not shown: C-terminal EGFP fusion (vector pCMV3-GFPSpark)
T1 chain: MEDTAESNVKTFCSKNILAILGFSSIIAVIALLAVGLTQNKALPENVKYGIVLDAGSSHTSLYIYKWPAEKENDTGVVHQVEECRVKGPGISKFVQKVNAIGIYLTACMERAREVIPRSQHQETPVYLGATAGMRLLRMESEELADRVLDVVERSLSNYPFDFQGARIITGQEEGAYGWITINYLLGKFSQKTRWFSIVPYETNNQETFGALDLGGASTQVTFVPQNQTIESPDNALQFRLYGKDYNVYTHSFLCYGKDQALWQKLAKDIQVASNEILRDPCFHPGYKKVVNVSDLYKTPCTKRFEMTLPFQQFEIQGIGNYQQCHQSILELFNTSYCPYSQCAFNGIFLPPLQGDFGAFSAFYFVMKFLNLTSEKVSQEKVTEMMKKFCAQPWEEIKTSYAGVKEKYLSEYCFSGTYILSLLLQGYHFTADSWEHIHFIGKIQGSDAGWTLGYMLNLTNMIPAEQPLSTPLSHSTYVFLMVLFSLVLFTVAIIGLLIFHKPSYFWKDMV

T2: KW27-2 (human CD39 mutant, C-terminal EGFP) (human, UniProt P49961 1-510)
T2 construct: expressed on HEK293F cells; not shown: C-terminal EGFP fusion (vector pCMV3-GFPSpark)
T2 chain: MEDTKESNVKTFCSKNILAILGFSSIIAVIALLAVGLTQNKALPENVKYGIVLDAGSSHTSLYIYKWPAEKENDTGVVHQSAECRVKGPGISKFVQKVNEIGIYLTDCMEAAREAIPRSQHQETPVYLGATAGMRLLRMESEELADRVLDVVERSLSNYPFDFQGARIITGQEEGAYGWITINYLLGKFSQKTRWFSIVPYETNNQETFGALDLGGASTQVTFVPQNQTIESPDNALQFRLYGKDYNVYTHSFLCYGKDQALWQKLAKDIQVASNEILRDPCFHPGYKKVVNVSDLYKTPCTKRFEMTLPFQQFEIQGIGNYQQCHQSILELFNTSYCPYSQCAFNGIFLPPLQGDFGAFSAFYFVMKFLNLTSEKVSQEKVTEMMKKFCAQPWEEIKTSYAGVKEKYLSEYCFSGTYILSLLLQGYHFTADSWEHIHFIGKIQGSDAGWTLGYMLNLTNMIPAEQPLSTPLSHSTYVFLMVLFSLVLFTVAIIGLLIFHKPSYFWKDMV

T3: kw27 (Intracellular C-terminal EGFP fusion, left out of the letters)
T3 construct: not shown: C-terminal EGFP (GFPSpark) reporter of vector pCMV3-GFPSpark and any linker to it
T3 chain: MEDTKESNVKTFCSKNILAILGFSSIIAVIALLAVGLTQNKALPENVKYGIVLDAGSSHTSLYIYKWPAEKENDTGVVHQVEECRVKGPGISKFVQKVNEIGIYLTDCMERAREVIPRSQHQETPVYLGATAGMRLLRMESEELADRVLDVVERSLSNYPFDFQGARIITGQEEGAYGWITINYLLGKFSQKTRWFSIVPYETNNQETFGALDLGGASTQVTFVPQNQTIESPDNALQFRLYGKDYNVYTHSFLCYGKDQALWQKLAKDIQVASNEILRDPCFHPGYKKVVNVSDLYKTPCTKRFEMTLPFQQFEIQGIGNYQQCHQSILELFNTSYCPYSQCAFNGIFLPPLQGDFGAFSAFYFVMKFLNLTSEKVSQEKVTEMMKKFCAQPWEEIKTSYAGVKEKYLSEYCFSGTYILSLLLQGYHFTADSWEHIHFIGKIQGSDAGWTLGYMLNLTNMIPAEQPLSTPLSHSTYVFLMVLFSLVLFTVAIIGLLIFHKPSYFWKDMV

T4: human CD39 (protein; form not stated) (human, UniProt P49961 38-478, limits assumed)
T4 construct: also called ENTPD1; ENTPDase 1
T4 sequence: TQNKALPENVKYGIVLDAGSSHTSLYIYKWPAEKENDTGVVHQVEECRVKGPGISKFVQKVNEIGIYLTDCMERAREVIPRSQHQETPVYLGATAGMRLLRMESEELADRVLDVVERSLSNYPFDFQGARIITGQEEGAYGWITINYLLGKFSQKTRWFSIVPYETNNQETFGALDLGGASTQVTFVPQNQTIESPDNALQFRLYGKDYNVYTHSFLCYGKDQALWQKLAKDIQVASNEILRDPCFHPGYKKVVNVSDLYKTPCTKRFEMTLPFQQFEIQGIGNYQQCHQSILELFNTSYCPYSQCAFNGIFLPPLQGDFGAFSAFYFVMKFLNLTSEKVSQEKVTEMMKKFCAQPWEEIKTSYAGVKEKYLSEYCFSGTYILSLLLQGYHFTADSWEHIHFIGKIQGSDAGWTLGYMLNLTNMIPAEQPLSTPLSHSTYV


What was measured:
[1] = target: T1, KW27-16 (human CD39 mutant, C-terminal …); assay: FACS on transfected HEK293F cells, relative binding = AlexaFluor647 / GFP
Procedure: (§1) Briefly, the human CD39 mutants were generated by gene synthesis and then cloned into an expression vector pCMV3-GFPSpark. The vectors containing the validated mutated sequences were prepared and transfected into HEK293F cells. Three days post transfection, the cells were collected to testing EGFP for transgene expression. A range of dosages of antibodies (start from 100 nM, 3-folds dilution, 11 points) were tested on the 20 generated mutants and stained by AlexFluor647 labelled anti-hIgG by FACS. Antibody binding was descripted as relative binding which is derived from AlexFluor647 intensity divided by GFP intensity.

[2] = target: T2, KW27-2 (human CD39 mutant, C-terminal …); assay: as above
Procedure: as §1

kw27 = target: T3, kw27; assay: as above
Procedure: as §1

[3] = target: T4, human CD39 (protein; form not stated); assay: Octet (BLI), antibody on sensor, CD39 in solution
Procedure: Briefly, the antibodies were coupled on sensors and then the sensors were dipped into CD39 gradients (start at 200 nM, with 2-fold dilution and totally 8 doses). Their binding responses were measured in real-time and results were fit globally.

Row | Binder | binding result [1] | binding result [2] | binding result (kw27) | Kd [3] | koff [3] | kon [3]
1 | Antibody 9-8B (antibody, V domains shown) VH: QIQLVQSGPELKKPGETVKISCKASGYTFTHYGMNWVKQAPGKGLKWMGWINTYTGELTYADDFKGRFAFSLETSASTAYLQINNLKNEDTATYFCARRAYYRYDYVMDYWGQGTSVTVSS VL: DIVMTQSQKFMSTSVGDRVSVTCKASHNVGTNVAWYQQKPGQSPKALIYSASYRYSGVPGRFTGSGSGTDFTLTISNVQSEDLAEYFCHQYNNYPYTFGGGTKLEIK | binds | binds | binds | 20.2 nM | 0.00243 s⁻¹ | 120000 M⁻¹ s⁻¹
2 | c34 (antibody, V domains shown, its making is not described; also called chimeric antibody c34) VH: EIQVQQSGPELVKPGASVKVSCKASGYSFTDYNMYWVKQSHGKSLEWIGFIDPYNGYTSYNQKFKGKATLTIDKSSSTAFMHLNSLTSEDSAVYYCAIYGYDDAYYFDYWGQGTTLTVSS VL: QIVLTQSPAIMSASPGEKVTITCSATSSVSYMHWFRQKPGTSPKLWIYSTSNLASGVPARFSGSGSGTSYSLTISRMAAEDAATYYCQQRITYPFTFGSGTKLEIT | no binding | binds | binds |  |  | 
3 | hu23.H5L5 (antibody, V domains shown, humanized c23) VH: QVQLVQSGAEVKKPGASVKVSCKASGYNLKDTFLHWVRQAPGQGLEWMGRIDPANGNIKYDPKFQGRVTITADTSANTAYMELISLRSEDTAVYYCANSPYYYGSGYRIFDVWGQGTTVTVSS VL: QIVLTQSPATLSLSPGERATLSCSAFSSVNYMHWYQQKPGQAPRLLIYTTSNLASGIPTRFSGSGSGTSYTLTISSLEPEDFAVYYCQQRSTYPFTFGQGTKLEIK | binds | binds | binds | 0.687 nM | 9.36e-05 s⁻¹ | 136000 M⁻¹ s⁻¹

Further lines, results first:

Row | binding result [1] | binding result [2] | binding result (kw27) | Kd [3] | koff [3] | kon [3] | Binder
4 |  |  | binds |  |  |  | c35 (antibody, V domains shown, its making is not described; also called chimeric antibody c35) VH: EVRLQQSGAELVKPGASVKLSCTASGFNIEDTYVHWMKQRPEQGLEWIGRIDPAIDNSKYDPKFQGKATITAVSSSNTAYLQLSSLTSEDTAVYYCALYDGYNVYAMDYWGQGTSVTVSS VL: DIVMTQAAFSNPVTLGTSASISCRSSKNLLHSNGITYLYWYLQRPGQSPQLLIYRASTLASGVPNRFSGSESGTDFTLRISRVEAEDVGVYYCAQLLELPHTFGGGTKLEIK
5 | binds | binds | binds | 6.62 nM | 0.00444 s⁻¹ | 671000 M⁻¹ s⁻¹ | Antibody T895 (antibody, V domains shown, also called 31895) VH: EVQLQQSGPELVKPGASVKMSCKASGYTFTDYNMHWVKQSHGRTLEWIGYIVPLNGGSTFNQKFKGRATLTVNTSSRTAYMELRSLTSEDSAAYYCARGGTRFAYWGQGTLVTVSA VL: not shown
